Target: microtubule polymers (Polymerised alpha/beta-tubulin heterodimers (one repeat given). Source is not printed (assay 'as previously described' in a cited paper); commercial mammalian brain tubulin is assumed, porcine taken a)
Test: co-sedimentation; microtubule pelleting assay; fraction of microtubule-bound Smc5 plotted against microtubule concentration, Kd by curve fitting to a hyperbola; 3 independent experiments
Details: both partners purified

Chain of microtubule polymers (Polymerised alpha/beta-tubulin heterodimers (one repeat given). Source is not printed (assay 'as previously described' in a cited paper); commercial mammalian brain tubulin is assumed, porcine taken a) (chain, as listed by the source, chain 1 of 2): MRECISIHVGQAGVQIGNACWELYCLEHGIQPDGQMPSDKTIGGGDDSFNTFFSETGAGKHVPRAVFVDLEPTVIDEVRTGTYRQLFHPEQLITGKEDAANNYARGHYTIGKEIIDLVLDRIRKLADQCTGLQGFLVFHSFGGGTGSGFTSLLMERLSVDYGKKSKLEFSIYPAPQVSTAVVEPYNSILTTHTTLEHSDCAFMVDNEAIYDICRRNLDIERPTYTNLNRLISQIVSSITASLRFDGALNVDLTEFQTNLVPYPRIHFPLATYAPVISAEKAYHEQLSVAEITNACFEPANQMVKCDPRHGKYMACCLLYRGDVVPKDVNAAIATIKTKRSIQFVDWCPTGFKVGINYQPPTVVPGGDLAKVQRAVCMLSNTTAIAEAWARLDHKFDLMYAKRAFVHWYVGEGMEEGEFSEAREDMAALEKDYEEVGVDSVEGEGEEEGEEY
Chain of microtubule polymers (Polymerised alpha/beta-tubulin heterodimers (one repeat given). Source is not printed (assay 'as previously described' in a cited paper); commercial mammalian brain tubulin is assumed, porcine taken a) (chain, as listed by the source, chain 2 of 2): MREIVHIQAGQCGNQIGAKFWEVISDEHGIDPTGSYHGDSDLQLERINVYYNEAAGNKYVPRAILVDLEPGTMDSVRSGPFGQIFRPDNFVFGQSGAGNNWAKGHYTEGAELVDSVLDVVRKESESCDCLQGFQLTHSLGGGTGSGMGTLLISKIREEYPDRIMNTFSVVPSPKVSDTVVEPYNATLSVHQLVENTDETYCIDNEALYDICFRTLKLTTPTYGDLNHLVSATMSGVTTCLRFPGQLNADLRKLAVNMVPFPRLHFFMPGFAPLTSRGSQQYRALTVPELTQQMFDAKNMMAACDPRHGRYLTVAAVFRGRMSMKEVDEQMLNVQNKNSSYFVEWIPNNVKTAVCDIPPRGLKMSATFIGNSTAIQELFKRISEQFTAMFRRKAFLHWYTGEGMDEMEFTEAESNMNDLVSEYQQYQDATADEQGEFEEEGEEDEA

B1: Smc5-2KE hinge domain (residues 215–885, K624E K631E) (domain or fragment, S. cerevisiae, UniProt Q08204 215-885, looked up)
chain: LRELQGNEQSLQKDLDFKKAKIVHLRQESDKLRKSVESLRDFQNKKGEIELHSQLLPYVKVKDHKEKLNIYKEEYERAKANLRAILKDKKPFANTKKTLENQVEELTEKCSLKTDEFLKAKEKINEIFEKLNTIRDEVIKKKNQNEYYRGRTKKLQATIISTKEDFLRSQEILAQTHLPEKSVFEDIDIKRKEIINKEGEIRDLISEIDAKANAINHEMRSIQRQAESKTKSLTTTDKIGILNQDQDLKEVRDAVLMVREHPEMKDKILEPPIMTVSAINAQFAAYLAQCVDYNTSKALTVVDSDSYKLFANPILDKFKVNLRELSSADTTPPVPAETVRDLGFEGYLSDFITGDKRVMKMLCQTSKIHTIPVSRRELTPAQIKKLITPRPNGKILFKRIIHGNRLVDIEQSAYGSEQVFPTDVSIKQTNFYQGSIMSNEQKIRIENEIINLKNEYNDRKSTLDALSNQKSGYRHELSELASKNDDINREAHQLNEIRKKYTMRKSTIETLREKLDQLKREARKDVSQKIKDIDDQIQQLLLKQRHLLSKMASSMKSLKNCQKELISTQILQFEAQNMDVSMNDVIGFFNEREADLKSQYEDKKKFVKEMRDTPEFQSWMREIRSYDQDTKEKLNKVAEKYEEEGNFNLSFVQDVLDKLESEIAMVNHDES
notes: Smc5, S. cerevisiae, hinge domain construct, residues 215-885, with K624E and K631E; source: purified
- fold reduction in binding affinity against wild-type Smc5: 3 fold

Source: paper PMC13470446, “Microtubule-dependent regulation of chromatin dynamics by the Smc5/6 complex” (iScience, 2026)
